Changes are numbered by the printed parent chain.

Sequences and labels used below:
B1: H2L2 (antibody, human IgG1, kappa)
heavy: not shown
light: DIHMTQSPSSLSASVGDRVTITCRASENIYSYLAWYQQKPGKSPKLLVYNAKTLAEGVPSRFSGSGSGTDFTLTISSLQPEDFATYYCQHHYVTPLTFGQGTKLEIKRTVAAPSVFIFPPSDEQLKSGTASVVCLLNNFYPREAKVQWKVDNALQSGNSQESVTEQDSKDSTYSLSSTLTLSKADYEKHKVYACEVTHQGLSSPVTKSFNRGEC
notes: Humanized, human IgG1 / kappa
B2: H1L3 (antibody, human IgG1, kappa, N297A, V domains shown)
VH: EVMLLESGGGLVQPGGSLRLSCAASGFIFSSYAMSWVRQAPGTGLEWVATISSGGSNTYSPDTVKGRFTISRDNSKNTLYLQMNSLRAEDTAVYYCARYYGYYFDFWGQGTLLTVSS
VL: DIHMTQSPSSLSASVGDRVTITCRASENIYSYLAWYQQKPGKSPQLLVYNAKTLAEGVPSRFSGSGSGTQFTLTISSLQPEDFATYYCQHHYVTPLTFGQGTKLEIKR
notes: Humanized, human IgG1 / kappa
B3: H3L1 (antibody, human IgG1, kappa, N297A)
heavy: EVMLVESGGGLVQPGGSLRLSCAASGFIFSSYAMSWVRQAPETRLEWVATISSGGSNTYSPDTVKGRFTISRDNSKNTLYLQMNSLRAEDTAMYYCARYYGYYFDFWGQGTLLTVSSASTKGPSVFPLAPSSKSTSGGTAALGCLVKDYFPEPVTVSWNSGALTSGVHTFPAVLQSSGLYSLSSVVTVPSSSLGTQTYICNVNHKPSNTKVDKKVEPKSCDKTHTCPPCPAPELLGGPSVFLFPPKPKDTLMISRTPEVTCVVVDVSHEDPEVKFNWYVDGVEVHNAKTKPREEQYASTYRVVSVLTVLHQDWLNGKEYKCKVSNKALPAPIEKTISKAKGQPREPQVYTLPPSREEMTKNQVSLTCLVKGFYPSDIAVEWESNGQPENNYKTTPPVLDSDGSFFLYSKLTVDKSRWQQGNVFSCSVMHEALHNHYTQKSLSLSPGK
light: B1 light with H3Q
notes: Humanized, human IgG1 / kappa
B4: H2L1 (antibody, human IgG1, kappa)
heavy: not shown
light: B1 light with H3Q
notes: Humanized, human IgG1 / kappa
B5: H2L3 (antibody, human IgG1, kappa, V domains shown)
VH: B2 VH with L5V, V93M
VL: B2 VL
notes: Humanized, human IgG1 / kappa
B6: H1L2 (antibody, human IgG1, kappa, N297A)
heavy: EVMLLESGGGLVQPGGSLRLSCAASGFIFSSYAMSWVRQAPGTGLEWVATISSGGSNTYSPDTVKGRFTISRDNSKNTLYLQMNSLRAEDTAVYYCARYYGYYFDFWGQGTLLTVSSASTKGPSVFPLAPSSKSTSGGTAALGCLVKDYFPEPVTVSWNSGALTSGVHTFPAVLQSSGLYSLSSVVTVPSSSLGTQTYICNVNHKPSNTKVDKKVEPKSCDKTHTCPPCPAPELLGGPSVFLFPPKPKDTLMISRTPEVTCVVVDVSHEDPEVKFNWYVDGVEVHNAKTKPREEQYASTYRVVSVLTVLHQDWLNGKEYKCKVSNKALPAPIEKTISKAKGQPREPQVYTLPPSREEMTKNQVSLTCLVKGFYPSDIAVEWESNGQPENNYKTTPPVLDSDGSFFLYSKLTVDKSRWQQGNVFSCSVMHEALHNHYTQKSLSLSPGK
light: B1 light
notes: Humanized, human IgG1 / kappa

For the first assay, the target named is T1, human LIF protein (human, UniProt P15018 23-202).
T1 construct: Bought recombinant protein (Sino Biological / Yiqiao Shenzhou 14890-HNAH) in most assays; also called recombinant human LIF protein; rhLIF
T1 sequence (P15018 23-202 limits assumed): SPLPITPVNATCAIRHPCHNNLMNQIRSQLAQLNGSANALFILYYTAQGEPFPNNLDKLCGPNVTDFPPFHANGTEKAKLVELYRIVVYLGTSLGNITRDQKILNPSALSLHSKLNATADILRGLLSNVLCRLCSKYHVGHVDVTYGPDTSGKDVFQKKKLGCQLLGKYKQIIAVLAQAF
As to the kind of experiment: ELISA, antigen coated 0.5 ug/ml, 293S supernatant non-heated, antibody 0.04 ug/mL. How it is done:
(§1) Each well was coated with 100 μL of 0.5 μg/ml antigen and incubate overnight at 4° C., and the plates were washed three times with 300 μL of Wash Buffer. The plates were closed with 200 μL of Closure Buffer (2% bovine serum albumin) for 60 min at room temperature. The plates were washed three times with 300 μL of Wash Buffer. 100 μL of diluted anti-LIF antibody at different concentrations was added to each well and incubate for 1 hour at room temperature. The plates were washed 4 times with 300 μL of Wash Buffer. 100 μL of HRP-labeled goat anti-human Fc secondary antibody at a dilution of 1:5000 was added and incubate for 1 hour at room temperature. The plates were washed 6 times with 300 μL of Wash Buffer. 100 μL of H₂O₂-Amplx Color Development Solution was added for developing the color for 10 min at room temperature under dark conditions. The OD 450 value was read by an enzyme marker. Heat treatment: the expression medium was heated on the PCR machine at 70° C. for 5 min and then rapidly cooled to room temperature. Perform subsequent ELISA assays as above.
(In general: ELISA stands for enzyme-linked immunosorbent assay.)
The molecule B1 gave an ELISA signal of 6520.
The same measure, in the same setting: with B2 the figure was 6440; with B3, 6220.
On the same count and under the same terms, in the case of B4 it was 6370.
On the same count and under the same terms, in the case of B5 it was 6270; in that of B6, 6680.

Another assay concerns the target T1, human LIF protein. As to the kind of experiment: ELISA, antigen coated 0.5 ug/ml, 293S supernatant non-heated, antibody 1 ug/mL. The procedure: as §1
Molecule B1 returned an ELISA signal of 11700.
B2 registered an ELISA signal of 11800.
On the same count and under the same terms, with B3 the figure was 11400; with B4, 12000.
For B5, the ELISA signal turned out to be 12000.
As for B6, the ELISA signal is 12100.

Another assay deals with T1, human LIF protein. As to the kind of experiment: ELISA, antigen coated 0.5 ug/ml, 293S supernatant heated 70 C 5 min, antibody 0.2 ug/mL. How it is done:
as §1
The molecule B1 returned an ELISA signal of 8720.
On the same count and under the same terms, in the case of B2 it was 8750.
On the same count and under the same terms, with B3 the figure was 7900; with B4, 8560.
In the case of B5, the ELISA signal was 9150.
On the same count and under the same terms, with B6 the figure was 8920.

The target of another assay is T1, human LIF protein. As to the kind of experiment: ELISA, antigen coated 0.5 ug/ml, 293S supernatant non-heated, antibody 0.2 ug/mL. How it is done:
as §1
In turn, B1 gave an ELISA signal of 10300.
On the same count and under the same terms, in the case of B2 it was 10800; in that of B3, 10000.
Consider B4, for which the ELISA signal was 10700.
On the same count and under the same terms, with B5 the figure was 11300.
Still for that read-out and setting: in the case of B6 it was 11200.

A further assay deals with T1, human LIF protein. As to the kind of experiment: ELISA, antigen coated 0.5 ug/ml, 293S supernatant heated 70 C 5 min, antibody 1 ug/mL. How it is done: as §1
Molecule B1 returned an ELISA signal of 9780.
B2 returned an ELISA signal of 9630.
As for B3, the ELISA signal came out at 9130.
Take B4: the ELISA signal was 9650.
With B5, the ELISA signal stood at 9730.
B6 returned an ELISA signal of 9830.

The target in a further assay is T1, human LIF protein. As to the kind of experiment: ELISA, antigen coated 0.5 ug/ml, 293S supernatant heated 70 C 5 min, antibody 0.04 ug/mL. The procedure: as §1
B1 gave an ELISA signal of 5260.
Same read-out and setting: in the case of B2 it was 4980.
The same measure, in the same setting: with B3 the figure was 5190; with B4, 5440.
For B5, the ELISA signal was 4870.
For B6, the ELISA signal was 5490.

(Values after patent US20210403582A1 (JACOBIO PHARMACEUTICALS, published 2021).)
